Assay results taken from patent US20260317428 (published 2026).

T1: human FGFR3b (alpha IIIb) (human, UniProt P22607)
T1 chain: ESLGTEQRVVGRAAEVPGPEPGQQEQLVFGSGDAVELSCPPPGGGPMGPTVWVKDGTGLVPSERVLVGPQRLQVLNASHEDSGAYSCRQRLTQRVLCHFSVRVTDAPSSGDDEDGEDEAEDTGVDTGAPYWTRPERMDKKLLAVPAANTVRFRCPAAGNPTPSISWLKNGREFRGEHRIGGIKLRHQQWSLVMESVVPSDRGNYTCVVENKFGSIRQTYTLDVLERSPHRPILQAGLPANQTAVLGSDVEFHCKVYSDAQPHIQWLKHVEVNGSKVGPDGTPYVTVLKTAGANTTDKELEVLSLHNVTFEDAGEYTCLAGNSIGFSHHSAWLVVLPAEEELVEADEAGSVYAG

T2: human FGFR3c (alpha IIIc) (human, UniProt P22607)
T2 chain: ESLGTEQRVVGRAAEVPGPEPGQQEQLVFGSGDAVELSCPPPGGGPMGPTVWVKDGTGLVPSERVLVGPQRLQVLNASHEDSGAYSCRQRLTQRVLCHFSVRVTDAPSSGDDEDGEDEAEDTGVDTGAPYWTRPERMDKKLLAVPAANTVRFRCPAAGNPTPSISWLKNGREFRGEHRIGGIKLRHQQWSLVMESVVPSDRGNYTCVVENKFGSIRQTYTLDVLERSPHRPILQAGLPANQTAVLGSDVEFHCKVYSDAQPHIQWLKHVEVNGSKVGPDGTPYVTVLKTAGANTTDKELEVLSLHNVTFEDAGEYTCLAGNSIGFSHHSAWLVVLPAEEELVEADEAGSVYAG

T3: human FGFR1c (FGFR1/CD331) (human, UniProt P11362)
T3 chain: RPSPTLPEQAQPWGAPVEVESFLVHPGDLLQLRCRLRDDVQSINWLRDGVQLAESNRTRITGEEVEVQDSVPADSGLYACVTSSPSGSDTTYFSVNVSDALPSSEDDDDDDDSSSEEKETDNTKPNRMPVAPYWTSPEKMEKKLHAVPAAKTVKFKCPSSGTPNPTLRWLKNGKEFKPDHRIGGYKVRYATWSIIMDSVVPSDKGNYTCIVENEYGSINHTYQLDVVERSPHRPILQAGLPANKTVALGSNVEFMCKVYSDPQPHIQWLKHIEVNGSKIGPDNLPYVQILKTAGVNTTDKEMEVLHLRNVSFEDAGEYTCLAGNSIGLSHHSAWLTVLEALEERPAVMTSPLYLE

T4: human FGFR2b ECD (human, UniProt P21802)
T4 chain: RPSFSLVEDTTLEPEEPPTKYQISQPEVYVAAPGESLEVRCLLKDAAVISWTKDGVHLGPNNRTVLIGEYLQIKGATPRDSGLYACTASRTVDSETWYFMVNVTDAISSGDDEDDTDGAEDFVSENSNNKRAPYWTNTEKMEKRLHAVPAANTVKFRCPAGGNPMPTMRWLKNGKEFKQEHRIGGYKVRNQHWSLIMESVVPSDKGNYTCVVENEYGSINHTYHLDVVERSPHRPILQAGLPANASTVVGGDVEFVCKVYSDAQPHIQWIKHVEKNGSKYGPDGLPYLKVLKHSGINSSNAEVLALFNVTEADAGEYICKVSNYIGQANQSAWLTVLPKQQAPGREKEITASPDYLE

T5: human FGFR1b (alpha IIIb) (human, UniProt P11362)
T5 chain: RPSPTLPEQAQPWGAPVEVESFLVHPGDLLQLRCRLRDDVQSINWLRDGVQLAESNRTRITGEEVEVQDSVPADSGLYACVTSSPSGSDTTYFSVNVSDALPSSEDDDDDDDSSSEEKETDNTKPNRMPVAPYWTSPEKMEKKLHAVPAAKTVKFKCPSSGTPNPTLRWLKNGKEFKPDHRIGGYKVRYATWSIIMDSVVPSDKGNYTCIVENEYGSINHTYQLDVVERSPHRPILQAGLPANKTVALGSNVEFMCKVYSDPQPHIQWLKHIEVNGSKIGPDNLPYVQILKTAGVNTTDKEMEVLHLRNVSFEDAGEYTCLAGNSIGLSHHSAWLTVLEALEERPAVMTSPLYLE


What was measured:
[1] = molecular target: T1, human FGFR3b (alpha IIIb); assay: ELISA
[2] = molecular target: T2, human FGFR3c (alpha IIIc); assay: ELISA
[3] = molecular target: human FGFR2c (alpha IIIc) (human, UniProt P21802); assay: ELISA
[4] = molecular target: FGFR2IIIc on HEK293 cells (human, UniProt P21802); assay: FACS
[5] = molecular target: T3, human FGFR1c (FGFR1/CD331); assay: ELISA
human FGFR2b ECD = molecular target: T4, human FGFR2b ECD; assay: BLI
human FGFR4 (CD334) = human FGFR4 (CD334) (human, UniProt P22455); assay: ELISA
[6] = molecular target: T5, human FGFR1b (alpha IIIb); assay: ELISA

Chain of human FGFR4 (CD334) (P22455 22-369): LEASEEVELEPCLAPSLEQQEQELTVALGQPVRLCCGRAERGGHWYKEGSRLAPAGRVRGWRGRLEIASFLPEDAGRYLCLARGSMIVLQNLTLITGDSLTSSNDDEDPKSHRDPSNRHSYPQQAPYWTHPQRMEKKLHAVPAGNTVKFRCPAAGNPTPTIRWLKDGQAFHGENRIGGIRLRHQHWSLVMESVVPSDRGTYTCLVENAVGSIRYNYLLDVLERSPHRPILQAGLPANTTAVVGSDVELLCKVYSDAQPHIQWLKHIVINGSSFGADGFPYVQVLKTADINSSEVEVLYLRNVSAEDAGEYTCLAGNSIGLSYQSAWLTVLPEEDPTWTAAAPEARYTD

Binder | binding result [1] | binding result [2] | binding result [3] | binding result [4] | binding result [5] | Kd (human FGFR2b ECD) | binding result (human FGFR4 (CD334)) | binding result [6]
humAbA1 (antibody, V domains shown) VH: QVQLVQSGAEVKKPGASVKVSCKASGYTFTSYNMHWVRQAPGQGLEWMGSIYPENGDTSYNQKFQDRVTLTRDTSTSTVYMELSSLRSEDTAVYYCARPFDYWGQGTLVTVSS VL: DIQMTQSPSSLSASVGDRVTITCQASQSVGNNLAWYQQKPGKAPKLLIYYASNLYTGVPSRFSGSGSGTDFTFTISSLQPEDIATYYCQQFYSSPYTFGQGTKLEIKR | no binding | no binding | no binding | no binding | no binding | < 1 nM | no binding | no binding
mAb1 (antibody, V domains shown) VH: QAYLQQSGAELVRPGASVKMSCKASGYTFTSYNMHWVKQTPRQGLEWIGSIYPENGDTSYNQKFRDKATLTVDKSSSTAYMQLSSLTSEDSAVYFCARPFDYWGQGTTLTVSS VL: SIVMTQTPKFLPISAGDRVTMTCKASQSVGNNVAWYQQKPGQSPKLLIYYASNRYTGVPDRFTGSGSGTDFTFTISSVQVEDLAVYFCQQFYSSPYTFGSGTKLEIK | no binding | no binding | no binding | no binding | no binding | – | no binding | no binding
